Data published in IntAct's records for PubMed 22653441.

B1: Serine/threonine-protein kinase PAK 4 (Homo sapiens), O96013 (parent)
chain: MFGKRKKRVEISAPSNFEHRVHTGFDQHEQKFTGLPRQWQSLIEESARRPKPLVDPACITSIQPGAPKTIVRGSKGAKDGALTLLLDEFENMSVTRSNSLRRDSPPPPARARQENGMPEEPATTARGGPGKAGSRGRFAGHSEAGGGSGDRRRAGPEKRPKSSREGSGGPQESSRDKRPLSGPDVGTPQPAGLASGAKLAAGRPFNTYPRADTDHPSRGAQGEPHDVAPNGPSAGGLAIPQSSSSSSRPPTRARGAPSPGVLGPHASEPQLAPPACTPAAPAVPGPPGPRSPQREPQRVSHEQFRAALQLVVDPGDPRSYLDNFIKIGEGSTGIVCIATVRSSGKLVAVKKMDLRKQQRRELLFNEVVIMRDYQHENVVEMYNSYLVGDELWVVMEFLEGGALTDIVTHTRMNEEQIAAVCLAVLQALSVLHAQGVIHRDIKSDSILLTHDGRVKLSDFGFCAQVSKEVPRRKSLVGTPYWMAPELISRLPYGPEVDIWSLGIMVIEMVDGEPPYFNEPPLKAMKMIRDNLPPRLKNLHKVSPSLKGFLDRLLVRDPAQRATAAELLKHPFLAKAGPPASIVPLMRQNRTR

Variants of: B1
Details: with cdc42_human CDC42, P60953
Sequence of cdc42_human CDC42, P60953 (P60953 whole entry, looked up): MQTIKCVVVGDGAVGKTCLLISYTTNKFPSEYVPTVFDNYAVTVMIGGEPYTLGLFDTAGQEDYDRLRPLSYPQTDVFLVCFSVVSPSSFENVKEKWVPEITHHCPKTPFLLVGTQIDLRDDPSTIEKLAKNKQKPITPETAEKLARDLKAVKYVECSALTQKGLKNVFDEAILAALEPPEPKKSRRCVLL

Effect of a mutation on the interaction, disrupting interaction:
R48E
T60E
R49E
